One substance from patent CN108101970A can be followed below.

In the assay the target is 抗Cry1Ab单克隆抗体. In words: indirect competitive ELISA (chemiluminescence), anti-Cry1Ab mAb coated at 10 μg/mL; competitor: Cry1Ab mimic nanobody (phage 1.0×10^11 pfu or protein 10 μg/mL).

Consider Cry1Ab标准品 (from UniProt P0A370 29-607), for which the IC50 was found to be 0.0427 µg/mL.
